# Measured values reported in the supplement of paper PMC7125110.
# ± gives the standard error. Variants at the floor of the assay were thinned out.
# B1: glmS ribozyme (parent)
# chain: AUAAAAGCGCCAGAACUACAGAAAUGUAGUUGACGAGGAGGAGGUUUAUCGAAUUUUCGGCGGAUGCCUCCAAA
# Variants of: B1
# Test: self-cleavage kobs at 640 uM GlcN6P; higher = faster cleavage; RNA array
# Conditions: with glucosamine-6-phosphate
# Outline: (§1)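 E. coli RNA polymerase transcribed barcoded ribozyme variants in situ on sequenced MiSeq chips, which were tracked via a hybridised Cy3 probe at 37 °C. Tiles were imaged over ~14 h after glucosamine-6-phosphate (40 μM to 10 mM) in HEPES/KCl/Mg(OAc)2 buffer was flowed in. Normalised per-tile medians were fit to one- or two-exponential decays for kobs, and kcat and KM came from weighted Michaelis–Menten fits.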
row,Variant,self-cleavage kobs at 640 uM GlcN6P [s⁻¹]
1,G51C C67G C70U,< 1e-05
2,U55A C67A C68U,8.42e-05 ± 2.6e-05
3,U46A U55C,0.00095 ± 0.00025
4,G66C C68U C70U,0.000337 ± 9.2e-05
5,U47A C58U U65C,< 1e-05
6,G43A A64U C67A,< 1e-05
7,U54A G59U C68U C70G,< 1e-05
8,U55G G63U U65G,< 1e-05
9,U45G U49C,< 1e-05
10,G43C U69G,< 1e-05
11,A53U G62U,< 1e-05
12,G44A U45G U49A C50G,< 1e-05
13,U47C U55A,0.00113 ± 0.00019
14,A48U A53C C68G C71G,9.77e-05 ± 3.4e-05
15,C61U G66C,< 1e-05
16,U46G C67U C71A,6.72e-05 ± 2e-05
17,G51A U54C U55G,< 1e-05
18,A52C C58G,< 1e-05

row,Variant,self-cleavage kobs at 640 uM GlcN6P [s⁻¹]
1,A48G A52C U57G,< 1e-05
2,U49A G66A,< 1e-05
3,U57G C67G,0.000478 ± 0.00018
4,U45C A53C,9.37e-05 ± 1.6e-05
5,G43C G51U C61G,< 1e-05
6,U46G G51U C71U,< 1e-05
7,C50G U65G U69A,0.000101 ± 2.1e-05
8,C61G G62A,< 1e-05
9,A42G U55C G66U,0.000398 ± 7.7e-05
10,U46A C68G C71G,0.00075 ± 0.00031
11,C50A G51U,< 1e-05
12,U47C A52G G66A,5.64e-05 ± 1.2e-05
13,U45G U46G U55C G63A,< 1e-05
14,U45G U47A A52G C68G,< 1e-05
15,A48G C50G C58G,0.000184 ± 8.1e-05
16,G43C C50A,< 1e-05
17,U49C U65C U69A,< 1e-05

# Variants of: B1
# Test: self-cleavage kobs at 2500 uM GlcN6P; higher = faster cleavage; RNA array
# Conditions: with glucosamine-6-phosphate
# Outline: as §1
row,Variant,self-cleavage kobs at 2500 uM GlcN6P [s⁻¹]
1,G51C C67G C70U,< 1e-05
2,A6G A12C U55C C67U,< 1e-05
3,U55A C67A C68U,0.000218 ± 4e-05
4,G7C U46A A52C,< 1e-05
5,A6C G40C C61U,< 1e-05
6,G7U C11U G51C,< 1e-05
7,U46A U55C,0.00269 ± 0.00043
8,A6U C10A C70A,0.000332 ± 0.00011
9,A6G G40C A42U,< 1e-05
10,G7C G29A G62U,< 1e-05
11,A6C C8G G66A C70U,< 1e-05
12,A6U A36G U46C A52G C67U,< 1e-05
13,A6U C8U C16U U30C G44U U55A C67G,< 1e-05
14,A6U G37U G40U,< 1e-05
15,G7A G9A A14C G44A,< 1e-05
16,G7A C8G G9C A15C U47G C71A,< 1e-05
17,U55G G63U U65G,< 1e-05
18,A6G U30C C34U,< 1e-05
19,A6C G13C G29A U30G G32U A33G C34A C50U,< 1e-05
20,G7A A39C U54G U57A C58U G66U,< 1e-05
21,G7C G9A A14U C50A,< 1e-05
22,G7A C10U G35U G43U,< 1e-05
23,A6G G43C C58G,< 1e-05
24,A6U G9A A42C,< 1e-05
25,A53U G62U,< 1e-05
26,A6C G40A U46G G51U,< 1e-05
27,G44A U45G U49A C50G,< 1e-05

row,Variant,self-cleavage kobs at 2500 uM GlcN6P [s⁻¹]
1,U47C U55A,0.00273 ± 0.00077
2,A6U A14U A33G C61U,< 1e-05
3,C61U G66C,< 1e-05
4,A6G G32C C67U C71G,< 1e-05
5,G7U C11G G13A A14U G32U A33C G37A G40A U47C,< 1e-05
6,A6G U31A U49A,< 1e-05
7,G43C G51U C61G,< 1e-05
8,A6G G40A A48G A53G C67U,< 1e-05
9,U46G G51U C71U,< 1e-05
10,G7U A12C C16U G60A,< 1e-05
11,A6U C16G A36U G41U G43C,< 1e-05
12,C61G G62A,< 1e-05
13,A42G U55C G66U,0.000634 ± 0.00014
14,A6G A14G G40A,3.86e-05 ± 1.1e-05
15,G7A G9U,< 1e-05
16,A6C A14G G35A U57A G66C C68U,< 1e-05
17,A6G G13C U65A U69C,< 1e-05
18,A6U U56A G63U,< 1e-05
19,A6G A36C C58A,< 1e-05
20,U47C A52G G66A,0.000112 ± 2.4e-05
21,U45G U46G U55C G63A,< 1e-05
22,A6G G59U C61U,< 1e-05
23,A6G G32U U45G,< 1e-05
24,G7U C8G U49A,< 1e-05
25,G43C C50A,< 1e-05
26,U49C U65C U69A,< 1e-05

# Variants of: B1
# Test: self-cleavage kobs at 10000 uM GlcN6P; higher = faster cleavage; RNA array
# Conditions: with glucosamine-6-phosphate
# Outline: as §1
row,Variant,self-cleavage kobs at 10000 uM GlcN6P [s⁻¹]
1,U55A C67A C68U,0.000108 ± 2.8e-05
2,U46A U55C,0.0029 ± 0.00062
3,U45G U49C,< 1e-05
4,G43C U69G,< 1e-05
5,A53U G62U,< 1e-05
6,U47C U55A,0.00496 ± 0.0011
7,A52C C58G,< 1e-05
8,U57G C67G,2.33e-05 ± 1e-05
9,U45C A53C,0.000403 ± 0.00014
10,A42G U55C G66U,0.00167 ± 0.00029
11,C50A G51U,< 1e-05
